Laboratory results published in US20080166798A1 (BARNES JEWISH HOSPITAL, published 2008).

B1: IIA NH2-propeptide synthesized without fusion to the neck/CRD domains of SP-D (other, human, UniProt P02458 26-203, looked up)
chain: QDVQEAGSCVQDGQRYNDKDVWKPEPCRICVCDTGTVLCDDIICEDVKDCLSPEIPFGECCPICPTDLATASGQPGPKGQKGEPGDIKDIVGPKGPPGPQGPAGEQGPRGDRGDKGEKGAPGPRGRDGEPGTPGNPGPPGPPGPPGPPGLGGNFAAQMAGGFDEKAGGAQLGVMQGPM
notes: domain: NH2-propeptide (exons 1-8); Transiently transfected CHO cells; secreted as monomers; also called control construct of full-length IIA NH2-propeptide only
B2: mIIA-203 (other, human, UniProt P02458 26-203, looked up)
chain: B1 chain
notes: domain: NH2-propeptide (exons 1-8); Truncation mutant of IIA/SP-D, control
B3: mIIA-211 (other, human;rat, UniProt P02458 26-203, looked up)
chain: QDVQEAGSCVQDGQRYNDKDVWKPEPCRICVCDTGTVLCDDIICEDVKDCLSPEIPFGECCPICPTDLATASGQPGPKGQKGEPGDIKDIVGPKGPPGPQGPAGEQGPRGDRGDKGEKGAPGPRGRDGEPGTPGNPGPPGPPGPPGPPGLGGNFAAQMAGGFDEKAGGAQLGVMQGPMDSAALRQQ
notes: domain: NH2-propeptide (exons 1-8);domain: first heptad repeat of the coiled-coil neck domain; Truncation mutant of IIA/SP-D; also called IIA NH2-propeptide fused to the first heptad repeat

Legend:
[1] = biological target: the molecule itself; assay: self-association; BS3 cross-linking, IIA Western blot
From the text: Chemical crosslinking was used to examine the state of oligomerization of the IIA collagen domain.

[2] = biological target: the molecule itself; assay: self-association; BS3 cross-linking (0-2 mM), anti-IIA immunoblot
Procedure: J. 318:505-511 (1996)) (FIG. 8). Each mutant protein was covalently cross-linked and the presence of protein monomers, dimers or trimers was detected by immunoblotting using the anti-IIA antibody. […] The IIA NH₂-propeptide attached to the 35 amino acid stretch of the coiled-coil neck (mIIA-237) was also secreted as a non-covalent trimer. However, lower concentrations of cross-linker (0.1-0.2 mM) were sufficient for detection of mIIA-237 trimers compared to concentrations used to detect trimers of the other truncated mutant proteins (0.5-1 mM), and no dimeric intermediate was identified. Co-operativity exists between the IIA NH₂-propeptide collagen domain and the 14 amino acid sequence of the SP-D coiled-coil neck domain
To determine the minimum sequence that can function as a trimerizing unit, mutant constructs were designed containing termination codons at specific locations within the heptad repeats of the coiled-coil. Using IIA/SP-D cDNA in pGEM-3Z as a substrate, four mutant constructs were synthesized using the QuikChangem Site-Directed Mutagenesis Kit (Stratagene, La Jolla, Calif.). The sequence of the mutant was confirmed by DNA sequencing. […] Proteins were detected by SDS-PAGE and immunolocalization of Western blots using the anti-IIA polyclonal antibody.

Row | Protein | binding result [1] | binding result [2]
1 | B1 | no binding | 
2 | B2 |  | no binding
3 | B3 |  | no binding
